Measured values as given in article PMC5941077.

Biological target: FLAG-tagged 3D7 CLAG3 protein (3D7 CLAG3.1 with tandem miniSOG-FLAG tag, TFLC3 parasite) (Plasmodium falciparum (3D7 line)) (UniProt O77310)
Test: co-IP; TFLC3 trophozoite-infected cell lysate in 50 mM Tris-HCl pH 7.4, 150 mM NaCl, 5 mM EDTA, 1% Triton X-100; anti-FLAG agarose beads, at least 2 h at 4°C; immunoblot probed with anti-HA; eluate compared with serial dilutions of the input

Chain of UniProt O77310 (O77310 25-1417): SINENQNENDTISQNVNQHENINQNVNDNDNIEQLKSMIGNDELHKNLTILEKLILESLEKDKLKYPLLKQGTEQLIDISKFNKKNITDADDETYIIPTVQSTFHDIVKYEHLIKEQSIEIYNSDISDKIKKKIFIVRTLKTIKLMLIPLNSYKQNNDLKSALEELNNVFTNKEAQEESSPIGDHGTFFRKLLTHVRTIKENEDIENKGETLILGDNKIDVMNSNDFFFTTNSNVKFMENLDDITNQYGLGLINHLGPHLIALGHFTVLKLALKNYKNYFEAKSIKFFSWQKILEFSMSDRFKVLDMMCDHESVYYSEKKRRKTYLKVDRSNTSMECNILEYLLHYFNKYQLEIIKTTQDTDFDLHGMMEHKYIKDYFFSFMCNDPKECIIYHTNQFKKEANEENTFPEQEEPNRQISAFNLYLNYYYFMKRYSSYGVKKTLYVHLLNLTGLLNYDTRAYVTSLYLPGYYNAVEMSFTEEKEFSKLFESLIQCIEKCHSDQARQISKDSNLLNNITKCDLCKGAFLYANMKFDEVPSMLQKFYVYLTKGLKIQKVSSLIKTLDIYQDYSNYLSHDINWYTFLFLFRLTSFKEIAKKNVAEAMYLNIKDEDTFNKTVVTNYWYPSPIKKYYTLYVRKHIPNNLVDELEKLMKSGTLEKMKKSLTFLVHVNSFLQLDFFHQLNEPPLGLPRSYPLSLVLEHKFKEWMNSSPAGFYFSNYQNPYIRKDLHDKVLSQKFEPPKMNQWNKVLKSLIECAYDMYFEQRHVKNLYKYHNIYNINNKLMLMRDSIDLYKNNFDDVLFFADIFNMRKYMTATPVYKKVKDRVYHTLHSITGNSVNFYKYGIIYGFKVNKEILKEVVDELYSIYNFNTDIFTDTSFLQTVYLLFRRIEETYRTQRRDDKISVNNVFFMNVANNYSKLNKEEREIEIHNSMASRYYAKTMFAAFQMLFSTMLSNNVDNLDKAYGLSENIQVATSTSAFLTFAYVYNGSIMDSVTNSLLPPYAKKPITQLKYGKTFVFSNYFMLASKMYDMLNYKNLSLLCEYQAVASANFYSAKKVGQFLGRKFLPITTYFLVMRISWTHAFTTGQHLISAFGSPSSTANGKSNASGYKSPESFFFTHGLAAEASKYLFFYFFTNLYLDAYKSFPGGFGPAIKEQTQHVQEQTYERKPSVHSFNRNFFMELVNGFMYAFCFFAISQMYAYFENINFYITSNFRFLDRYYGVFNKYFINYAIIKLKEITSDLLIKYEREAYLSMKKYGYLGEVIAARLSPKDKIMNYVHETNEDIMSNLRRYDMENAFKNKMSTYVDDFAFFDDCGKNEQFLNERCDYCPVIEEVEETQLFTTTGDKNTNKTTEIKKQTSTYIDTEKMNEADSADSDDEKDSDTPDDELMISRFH

“HA-tagged Dd2 CLAG3 protein (TFLC3 parasite) (natural protein)” was tested, and the percent of the HA-tagged isoform coprecipitated on anti-FLAG beads was 1 to 10%.
